Key:
[1] = tested on: HeLa cells; assay: Cell proliferation of HeLa Tet-off cells with inducible TReP-132 (HTO-GFP/TReP-132); format: cell-based, human; settings: HTO-GFP/TReP-132 cells, Dox removed, after 4 days of culture; with Dox about 16 hours
Text: HeLa Tet-off cells expressing the tTA transactivator under the control of tetracycline or doxycycline (Dox) (Clontech Laboratories, Palo Alto, Calif.) were stably transfected with the pBI-EGFP-TReP-132 vector or the pBI-EGFP control vector. In order to select stably transfected cells, the pcDNA6 plasmid (Invitrogen, Ontario, CA) containing the blasticidin resistance gene was cotransfected at a ratio of 1:50. For these transfections, the cells were first seeded in 6-well plates at an initial density of 1×10^5 cells per well, incubated for 24 hours, then transfected with ExGen 500 (MBI Fermentas, Flamborough, Ontario, CA) at a ratio of 5 μl of ExGen 500 for a total of 1 μg of plasmid such as described hereinabove in the section “Colony formation assays”. 48 hours post-transfection, cells were selected for 2 weeks with blasticidin (Sigma-Aldrich CA Ltd.). Clearly visible colonies were then were picked and subcloned on 12-well plates to enable growth. […]
The cell proliferation rate was determined by the cellular DNA content using the fluorochorome DABA ([…]). […] Fluorescence was measured on a Perkin-Elmer LS-2B Filter Fluorimeter at an excitation wavelength of 400 nm and an emission wavelength of 508 nm. The DNA content was calculated from a standard curve of known quantities of salmon sperm DNA.

[2] = tested on: ER; assay: GST pull-down, TReP-132 and ER; format: binding; settings: GST pull-down with 35S-ER
Experimental: GST-TReP-132 wt was analyzed in terms of the interaction with the ^35[S]-ER, as described previously.
In order to evaluate the interaction of TReP-132, Sp1, ER and PR, the wt and mutant GST-TReP-132 fusion proteins were expressed, then immobilized on glutathione-Sepharose as described (Frangioni and Neel, 1993; Monte et al., 1998). The ^35S-[Sp1], ^35S-[ER] and ^35S-[PR-B] proteins were synthesized in vitro using a rabbit reticulocyte lysate and T7 RNA polymerase system as directed by the manufacturer (Promega Corporation, Madison, Wis.). Proteins which bound, then detached from the Sepharose after being heated to boiling in SDS buffer were then separated on a 10% SDS-PAGE gel. The gels were stained with Coomassie blue, dried and autoradiographed.

[3] = tested on: cyclin D1/CDK6; assay: In vitro kinase assay of immunoprecipitated cyclin D1/CDK6 (pRb substrate); format: biochemical, human; settings: TReP-132 induced for 48 hours in HTO-GFP/TReP-132 cells
Text: FIG. 9A: Kinase activities of each immunoprecipitated cyclin or CDK were quantified using pRb as substrate to measure cyclin D1/CDK6 activity, or histone H1 to measure cyclin A/CDK2 activity. The levels of phosphorylation of histone H1 or pRb in induced HTO cells (HeLa Tet Off) are expressed in relation to the levels in non-induced HTO cells (corresponding to level 1.0).
Cells were washed twice with cold PBS (Phosphate Buffered Saline), then harvested either in cold RIPA buffer (1×PBS, 1% Nonidet P-40, 0.5% sodium deoxycholate, 0.1% SDS, phosphatase and protease inhibitors) for co-immunoprecipitation analysis, or in lysis buffer (50 mM Tris, pH 8.0, 0.1% IGEPAL (Sigma)) for kinase assays. […] The blots were then visualized with ECL reagent and quantified with SCANWISE and Perfect-IMAGE V-5.3 software (CLARA VISION, France).
The kinase activities on histone H1 or Rb protein in the immunoprecipitates were measured as follows: the immunoprecipitates were first washed once with 1 ml of assay buffer (50 mM Tris-HCl, pH 7.4, 10 mM MgCl2, 1 mM dithiothreitol (DTT)), then resuspended in 20 μl of assay buffer containing 1 mg/ml casein (Sigma) and 1 μg of histone H1 or Rb protein (769) (sc-4112) as substrate. […]
The reaction was stopped by addition of 15 μl of electrophoresis buffer (3×). […] Phosphorylated Rb and histones were quantified by densitometry.

B1: TReP-132: Transcriptional Regulating Protein of 132 kDa, polypeptide comprising SEQ ID NO: 2; here expressed in cells from vectors (protein)
chain: MGDQQLYKTNHVAHGSENLFYQQPPLGVHSGLNHNYGNAVTGGGMDAPQASPISPHFPQDTRDGLGLPVGSKNLGQMDTSRQGGWGSHAGPGNHVQLRGNLANSNMMWGAPAQAEPTDGYQYTYSQASEIRTQKLTSGVLHKLDSFTQVFANQNLRIQVNNMAQVLHTQSAVMDGAPDSALRQLLSQKPMEPPAPAIPSRYQQVPQQPHPGFTGGLSKPALQVGQHPTQGHLYYDYQQPLAQVPVQGGQPLQAPQMLSQHMQQMQQHQYYPPQQQQQAGQQRISMQEIQTQPQQIRPSQPQPPPQQQQPQQLQLQQRQGSMQIPQYYQPQPMMQHLQEQQQQQMHLQPPSYHRDPHQYTPEQAHTVQLIPLGSMSQYYYQEPQQPYSHPLYQQSHLSQHQQREDSQLKTYSSDRQAQAMLSSHGDLGPPDTGMGDPASSDLTRVSSTLPHRPLLSPSGIHLNNMGPQHQQLSPSAMWPQMHLPDGRAQPGSPESSGQPKGAFGEQFDAKNKLTCSICLKEFKNLPALNGHMRSHGGMRASPNLKQEEGEKVLPPQPQPPLPPPPPPPPPPQLPPEAESLTPMVMPVSVPVKLLPPKPSSQGFTNSTVAAPSARDKPASSMSDDEMPVLEIPRKHQPSVPKAEEPLKTVQEKKKFRHRPEPLFIPPPPSYNPNPAASYSGATLYQSQLRSPRVLGDHLLLDPTHELPPYTPPPMLSPVRQGSGLFSNVLISGHGPGAHPQLPLTPLTPTPRVLLCRSNSIDGSNVTVTPGPGEQTVDVEPRINIGLRFQAEIPELQDISALAQDTHKATLVWKPWPELENHDLQQRVENLLNLCCSSALPGGGTNSEFALHSLFEAKGDVMVALEMLLLRKPVRLKCHPLANYHYAGSDKWTSLERKLFNKALATYSKDFIFVQKMVKSKTVAQCVEYYYTWKKIMRLGRKHRTRLAEIIDDCVTSEEEEELEEEEEEDPEEDRKSTKEEESEVPKSPEPPPVPVLAPTEGPPLQALGQPSGSFICEMPNCGAVFSSRQALNGHARIHGGTNQVTKARGAIPSGKQKPGGTQSGYCSVKSSPSHSTTSGETDPTTIFPCKECGKVFFKIKSRNAHMKTHRQQEEQQRQKAQKAAFAAEMAATIERTTGPVGAPGLLPLDQLSLIKPIKDVDILDDDVVQQLGGVMEEAEVVDTDLLLDDQDSVLLQGDAEL
[1]
  doubling time: approximately 60 hours
[2]
  interaction with ER: interact
[3]
  in vitro kinase activity of cyclin D1/CDK6: reduced

— patent US20080044436A1, “Method for Screening and Compositions for Treating Cancers” (priority 2004, published 2008)
